# According to publication doi:10.1101/2021.11.28.470279:
# B1: 21-mer nicked 3'-8oxoG opposite C (crystal) (dsDNA)
# DNA 1: GGATCCGTCGACCGCATCAGC
# DNA 2: GCTGATGCGG
# DNA 3: TCGACGGATCC
# modifications: 8-oxoG at 3' end of upstream strand (strand 2, written G); 5'-phosphate on downstream strand (strand 3)
# Molecular target: ΔAPE1 E96Q/D210N (catalytically dead, crystallization construct) (Homo sapiens (human), UniProt P27695 44-318, C138A;E96Q;D210N)
# Experiment: crystal structure
# ΔAPE1 E96Q/D210N (catalytically dead, crystallization construct), sequence (P27695 44-318 E96Q/C138A/D210N): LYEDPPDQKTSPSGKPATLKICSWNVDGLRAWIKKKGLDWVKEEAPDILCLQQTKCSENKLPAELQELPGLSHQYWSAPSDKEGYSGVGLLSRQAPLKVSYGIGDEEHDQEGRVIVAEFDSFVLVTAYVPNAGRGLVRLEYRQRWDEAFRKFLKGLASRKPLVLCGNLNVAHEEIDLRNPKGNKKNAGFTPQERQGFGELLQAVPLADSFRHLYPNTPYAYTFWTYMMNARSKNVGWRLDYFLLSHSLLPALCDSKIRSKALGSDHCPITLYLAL
binder,measurement,value
B1,binding result,binds
